The numbers were not newly measured in article PMC5268426, which cites them from elsewhere.

For orientation: Ki means the dissociation constant of the complex between target and ligand, obtained from inhibition or displacement. As usually defined, the Kd is a measure of binding affinity in units of concentration.

In one data set the target is Prostasin (Homo sapiens) (UniProt Q16651).
Data set [1] deals with Pancreatic trypsin inhibitor (PTI) (Bos taurus) (UniProt P00974).
Data set [2] has the same target. This is another data set of the same source.

Read-outs that look alike come from different tables or passages of the source.

With HAI-2 (from UniProt O43291), the Ki in the data set with Prostasin (Homo sapiens) was 5 nM.

On to Trypsin (from UniProt P00760), for which the Kd in data set [1] is 0.06 pM.

In the case of Trypsinogen (from UniProt P00760), the dissociation constant (Kd) in data set [2] is 2000 nM.
